Source: patent US20090208416A1

Experiments:
[1] = target: NKG2A on baboon NK cells (baboon); assay: FACS baboon whole blood NK cells, animal V999
[2] = target: NKG2A on rhesus monkey (Macaca mulatta) NK cells (rhesus monkey (Macaca mulatta)) (UniProt Q9MZJ3); assay: FACS rhesus whole blood, mean over animals
[3] = target: NKG2A on rhesus monkey (Macaca mulatta) NK cells (rhesus monkey (Macaca mulatta)) (UniProt Q9MZJ3); assay: FACS rhesus whole blood, animal R00013
[4] = target: NKG2A on rhesus monkey (Macaca mulatta) NK cells (rhesus monkey (Macaca mulatta)) (UniProt Q9MZJ3); assay: FACS rhesus whole blood NK cells, animal N0404
[5] = target: NKG2A on cynomolgus monkey NK cells (cynomolgus monkey) (UniProt Q68VD2); assay: FACS cynomolgus whole blood, animal AK729
[6] = target: NKG2A on rhesus monkey (Macaca mulatta) NK cells (rhesus monkey (Macaca mulatta)) (UniProt Q9MZJ3); assay: FACS rhesus whole blood NK cells, animal RU925
[7] = target: NKG2A on baboon NK cells (baboon); assay: FACS baboon whole blood NK cells, animal O22V
[8] = target: NKG2A on baboon NK cells (baboon); assay: FACS baboon whole blood NK cells, animal V9920
[9] = target: NKG2A on cynomolgus monkey NK cells (cynomolgus monkey) (UniProt Q68VD2); assay: FACS cynomolgus whole blood, animal AK565
[10] = target: NKG2A on rhesus monkey (Macaca mulatta) NK cells (rhesus monkey (Macaca mulatta)) (UniProt Q9MZJ3); assay: FACS rhesus whole blood, animal R00007
[11] = target: NKG2A on baboon NK cells (baboon); assay: FACS baboon whole blood NK cells, animal V989
[12] = target: NKG2A on rhesus monkey (Macaca mulatta) NK cells (rhesus monkey (Macaca mulatta)) (UniProt Q9MZJ3); assay: FACS rhesus whole blood NK cells, animal P9215
[13] = target: NKG2A on rhesus monkey (Macaca mulatta) NK cells (rhesus monkey (Macaca mulatta)) (UniProt Q9MZJ3); assay: FACS rhesus whole blood NK cells, mean of 9 animals
[14] = target: NKG2A on baboon NK cells (baboon); assay: FACS baboon whole blood NK cells, animal K938A
[15] = target: NKG2A on rhesus monkey (Macaca mulatta) NK cells (rhesus monkey (Macaca mulatta)) (UniProt Q9MZJ3); assay: FACS rhesus whole blood, animal R00025
[16] = target: NKG2A on rhesus monkey (Macaca mulatta) NK cells (rhesus monkey (Macaca mulatta)) (UniProt Q9MZJ3); assay: FACS rhesus whole blood, animal R00023
[17] = target: NKG2A on baboon NK cells (baboon); assay: FACS baboon whole blood NK cells, animal V992
[18] = target: NKG2A on rhesus monkey (Macaca mulatta) NK cells (rhesus monkey (Macaca mulatta)) (UniProt Q9MZJ3); assay: FACS rhesus whole blood, animal O967
[19] = target: NKG2A on cynomolgus monkey NK cells (cynomolgus monkey) (UniProt Q68VD2); assay: FACS cynomolgus whole blood, animal AL210
[20] = target: NKG2A on rhesus monkey (Macaca mulatta) NK cells (rhesus monkey (Macaca mulatta)) (UniProt Q9MZJ3); assay: FACS rhesus whole blood, animal R00101
[21] = target: NKG2A on rhesus monkey (Macaca mulatta) NK cells (rhesus monkey (Macaca mulatta)) (UniProt Q9MZJ3); assay: FACS rhesus whole blood, animal 31828
[22] = target: NKG2A on baboon NK cells (baboon); assay: FACS baboon whole blood NK cells, animal V9912
[23] = target: NKG2A on rhesus monkey (Macaca mulatta) NK cells (rhesus monkey (Macaca mulatta)) (UniProt Q9MZJ3); assay: FACS rhesus whole blood, animal R00061
[24] = target: NKG2A on rhesus monkey (Macaca mulatta) NK cells (rhesus monkey (Macaca mulatta)) (UniProt Q9MZJ3); assay: FACS rhesus whole blood NK cells, animal PM021
[25] = target: NKG2A on rhesus monkey (Macaca mulatta) NK cells (rhesus monkey (Macaca mulatta)) (UniProt Q9MZJ3); assay: FACS rhesus whole blood NK cells, animal 201
[26] = target: NKG2A on baboon NK cells (baboon); assay: FACS baboon whole blood NK cells, animal V861B
[27] = target: NKG2A on rhesus monkey (Macaca mulatta) NK cells (rhesus monkey (Macaca mulatta)) (UniProt Q9MZJ3); assay: FACS rhesus whole blood, animal R00093
[28] = target: NKG2A on baboon NK cells (baboon); assay: FACS baboon whole blood NK cells, animal PA977
[29] = target: NKG2A on rhesus monkey (Macaca mulatta) NK cells (rhesus monkey (Macaca mulatta)) (UniProt Q9MZJ3); assay: FACS rhesus whole blood, animal R00037
[30] = target: NKG2A on baboon NK cells (baboon); assay: FACS baboon whole blood NK cells, animal V914B
[31] = target: NKG2A on rhesus monkey (Macaca mulatta) NK cells (rhesus monkey (Macaca mulatta)) (UniProt Q9MZJ3); assay: FACS rhesus whole blood NK cells, animal CH256
[32] = target: NKG2A on baboon NK cells (baboon); assay: FACS baboon whole blood NK cells, animal V997
[33] = target: NKG2A on baboon NK cells (baboon); assay: FACS baboon whole blood NK cells, animal V9914
[34] = target: NKG2A on baboon NK cells (baboon); assay: FACS baboon whole blood NK cells, animal V942A

Chain of UniProt Q68VD2 (Q68VD2 entry or part of it): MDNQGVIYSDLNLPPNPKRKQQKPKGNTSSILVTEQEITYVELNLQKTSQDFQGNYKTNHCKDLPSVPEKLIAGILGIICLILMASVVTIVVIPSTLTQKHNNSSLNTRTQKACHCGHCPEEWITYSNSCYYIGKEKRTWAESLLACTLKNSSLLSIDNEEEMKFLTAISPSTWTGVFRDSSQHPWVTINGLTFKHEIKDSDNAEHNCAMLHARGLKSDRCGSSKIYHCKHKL
Chain of UniProt Q9MZJ3 (Q9MZJ3 whole entry): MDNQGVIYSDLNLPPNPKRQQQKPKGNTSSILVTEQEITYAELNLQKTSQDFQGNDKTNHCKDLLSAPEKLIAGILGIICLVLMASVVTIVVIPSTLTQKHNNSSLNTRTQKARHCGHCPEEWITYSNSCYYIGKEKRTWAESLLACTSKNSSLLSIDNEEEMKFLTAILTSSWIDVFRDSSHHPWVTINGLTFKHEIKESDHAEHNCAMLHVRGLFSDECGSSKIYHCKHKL

Substance: mouse IgG1 isotype control (antibody)
- % [1]: 0.3%
- tot. MFI [1]: 0.2
- % NK+ (Mean) [2]: 0.7%
- MFI (Mean) [2]: 0.6
- % NK+ [3]: 0.3%
- MFI [3]: 0.66
- % [4]: 0.6%
- % NK+ [5]: 0.3%
- MFI [5]: 0.6
- % [6]: 0.4%
- % [7]: 0.5%
- tot. MFI [7]: 0.2
- % [8]: 0.7%
- tot. MFI [8]: 0.8
- % NK+ [9]: 0.6%
- MFI [9]: 0.66
- % NK+ [10]: 1.5%
- MFI [10]: 0.52
- % [11]: 1.2%
- tot. MFI [11]: 1.2
- % [12]: 1.4%
- % (Mean) [13]: 0.7%
- % [14]: 0.3%
- tot. MFI [14]: 0.3
- % NK+ [15]: 0.7%
- MFI [15]: 0.45
- % NK+ [16]: 0.3%
- MFI [16]: 0.5
- % [17]: 0.6%
- tot. MFI [17]: 0.3
- % NK+ [18]: 0.5%
- MFI [18]: 0.67
- % NK+ [19]: 0.4%
- MFI [19]: 0.65
- % NK+ [20]: 0.5%
- MFI [20]: 0.58
- % NK+ [21]: 0.4%
- MFI [21]: 0.65
- % [22]: 0.2%
- tot. MFI [22]: 0.2
- % NK+ [23]: 0.5%
- MFI [23]: 0.5
- % [24]: 0.8%
- % [25]: 1.3%
- % [26]: 0.2%
- tot. MFI [26]: 0.6
- % NK+ [27]: 1%
- MFI [27]: 0.68
- % [28]: 0.9%
- tot. MFI [28]: 1.1
- % NK+ [29]: 0.6%
- MFI [29]: 0.5
- % [30]: 0.4%
- tot. MFI [30]: 1.1
- % [31]: 0.8%
- % [32]: 0.7%
- tot. MFI [32]: 0.2
- % [33]: 0.1%
- tot. MFI [33]: 0.3
- % [34]: 1.7%
- tot. MFI [34]: 1
